Target: T1, CD16A (human, UniProt P08637 17-208, limits assumed)
T1 construct: Target of the hu3G8 VH/VL variant screen of section 5.1.2; also called FcγRIIIA
Assay: tetrameric IgG1 with hu3G8VL-1 light chain; binding to CD16A, method not named

T1 sequence (P08637 17-208 limits assumed): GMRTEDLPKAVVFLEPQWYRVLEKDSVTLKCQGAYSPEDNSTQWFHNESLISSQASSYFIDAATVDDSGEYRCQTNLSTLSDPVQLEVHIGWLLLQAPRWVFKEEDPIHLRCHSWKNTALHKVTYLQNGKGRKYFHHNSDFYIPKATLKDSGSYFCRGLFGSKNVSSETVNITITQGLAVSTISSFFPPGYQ

Binder | binding result
tetrameric antibody hu3G8VH-1 / hu3G8VL-1 (antibody, IgG1, V domains shown, VH on human Cgamma1 constant region (IgG1)) VH: QVTLRESGPALVKPTQTLTLTCTFSGFSLSTSGMGVGWIRQPPGKALEWLAHIWWDDDKRYNPALKSRLTISKDTSKNQVVLTMTNMDPVDTATYYCARINPAWFAYWGQGTLVTVSS VL: DIVMTQSPDSLAVSLGERATINCKASQSVDFDGDSFMNWYQQKPGQPPKLLIYTTSNLESGVPDRFSGSGSGTDFTLTISSLQAEDVAVYYCQQSNEDPYTFGQGTKLEIK | binds
tetrameric antibody hu3G8VH-5 / hu3G8VL-1 (antibody, IgG1, V domains shown, VH on human Cgamma1 (IgG1)) VH: QVTLRESGPALVKPTQTLTLTCTFSGFSLSTSGMGVGWIRQPPGKALEWLAHIWWDDDKRYNPALKSRLTISKDTSKNQVVLTMTNMDPVDTATYYCAQINPAWFAYWGQGTLVTVSS VL: DIVMTQSPDSLAVSLGERATINCKASQSVDFDGDSFMNWYQQKPGQPPKLLIYTTSNLESGVPDRFSGSGSGTDFTLTISSLQAEDVAVYYCQQSNEDPYTFGQGTKLEIK | binds
tetrameric antibody hu3G8VH-22 / hu3G8VL-1 (antibody, IgG1, V domains shown, VH on human Cgamma1 (IgG1)) VH: QVTLRESGPALVKPTQTLTLTCTFSGFSLSTSGVGVGWIRQPPGKALEWLAHIWWDDDKRYSPSLKSRLTISKDTSKNQVVLTMTNMDPVDTATYYCARINPAYFAYWGQGTLVTVS VL: DIVMTQSPDSLAVSLGERATINCKASQSVDFDGDSFMNWYQQKPGQPPKLLIYTTSNLESGVPDRFSGSGSGTDFTLTISSLQAEDVAVYYCQQSNEDPYTFGQGTKLEIK | binds
